{"source": "paper PMC4569712", "about": "“IRTKS negatively regulates antiviral immunity through PCBP2 sumoylation-mediated MAVS degradation” (Nature Communications, 2015)", "binders": {"B1": {"name": "Recombinant PCBP2 (natural protein, mouse, UniProt Q61990 1-362, looked up)", "chain": "MDTGVIEGGLNVTLTIRLLMHGKEVGSIIGKKGESVKKMREESGARINISEGNCPERIITLAGPTNAIFKAFAMIIDKLEEDISSSMTNSTAASRPPVTLRLVVPASQCGSLIGKGGCKIKEIRESTGAQVQVAGDMLPNSTERAITIAGIPQSIIECVKQICVVMLESPPKGVTIPYRPKPSSSPVIFAGGQDRYSTGSDSASFPHTTPSMCLNPDLEGPPLEAYTIQGQYAIPQPDLTKLHQLAMQQSHFPMTHGNTGFSGIESSSPEVKGYWAGLDASAQTTSHELTIPNDLIGCIIGRQGAKINEIRQMSGAQIKIANPVEGSTDRQVTITGSAASISLAQYLINVRLSSETGGMGSS", "notes": "PCBP2, cloned from a murine bone marrow library; source: recombinant (E. coli constructs in pGEX-6p-1 and pET-28a are described)"}}, "biological_target": "T1, Recombinant GST-IRTKS (mouse, UniProt Q9DBJ3 1-514)", "T1 construct": "IRTKS, cloned from a murine bone marrow library, subcloned into pGEX-6p-1; also called recombinant IRTKS; source: E. coli (pGEX-6p-1), recombinant", "T1 sequence (looked up)": "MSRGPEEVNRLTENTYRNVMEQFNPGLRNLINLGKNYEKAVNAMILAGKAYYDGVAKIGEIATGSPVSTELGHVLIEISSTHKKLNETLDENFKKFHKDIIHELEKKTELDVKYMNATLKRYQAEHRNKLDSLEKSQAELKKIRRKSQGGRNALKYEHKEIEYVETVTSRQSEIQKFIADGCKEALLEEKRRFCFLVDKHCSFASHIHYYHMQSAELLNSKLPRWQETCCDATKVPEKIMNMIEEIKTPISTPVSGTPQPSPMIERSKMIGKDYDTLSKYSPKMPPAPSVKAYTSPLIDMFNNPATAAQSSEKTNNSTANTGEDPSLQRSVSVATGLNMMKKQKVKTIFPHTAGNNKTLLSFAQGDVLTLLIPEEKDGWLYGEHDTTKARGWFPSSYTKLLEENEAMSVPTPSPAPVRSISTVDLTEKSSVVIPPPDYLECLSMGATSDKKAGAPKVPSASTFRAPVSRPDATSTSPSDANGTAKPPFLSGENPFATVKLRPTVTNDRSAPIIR", "test": "pull-down; GST pull-down: recombinant GST-tagged IRTKS or its truncations incubated with the recombinant partner", "settings": "both partners purified", "data": [{"binder": "B1", "values": [{"measurement": "binding result", "result": "binds"}]}]}
